From patent US20120171123A1, “USES AND COMPOSITIONS FOR TREATMENT OF RHEUMATOID ARTHRITIS” (priority 2006, published 2012)
Read-outs that look alike come from different tables or passages of the source. Marks after values point to notes of the source that are not given here.

Legend:
[1] = test system: patients with RA
Text: The ADA pivotal trials were Study I, Study I (both ADA+MTX in MTX partial responders), Study 2 (ADA monotherapy) and Study K (ADA added to standard of care). Patients from the Phase I-III controlled clinical trials of ADA in RA, including the pivotals, were allowed to receive ADA as long-term, open-label therapy in 3 extension studies: 1) Study 18, for ADA monotherapy in the EU, 2) Study 20, for ADA with MTX in NA, and 3) the extension of Study 1, in NA. […] Adverse events are classified as “serious” adverse events based on the following regulatory criteria: fatal, life-threatening, requires inpatient hospitalization, prolongs hospitalization, causes congenital anomaly/birth defect, results in persistent or significant disability/incapacity, an important medical event that jeopardizes the patient and requires medical/surgical intervention to prevent another serious outcome. Serious infections (SI) are defined as “serious adverse events” that are coded under “Infections and Infestations” in the MedDRA coding system. […] 1, 2005 were analyzed in the report described herein. Non-serious infections were not included in this analysis. Serious infections reported during these trials were tabulated and rates were calculated as events per patient-year (E/PY). […] Rates of SI were determined for subsets of patients who, at the time of the SI, had diabetes, or were using concomitant steroids or concomitant MTX.

[2] = test system: RA patients treated with adalimumab in clinical trials in North America and Europe
Procedure: The rate of TB was calculated for the period before screening was initiated (primarily Phase I trials) and the period after screening was implemented. The screening program consisted of a clinical interview, a tuberculin skin test, and, in most patients, a chest X-ray (CXR). The definition of PPD-positive depended on local country-specific guidelines. For those people who were PPD-positive, or for whom the investigator felt the risk of TB reactivation was high, INH was given for prophylaxis.
The methodology differed among protocols. For instance, in Europe and Australia, it was initially used CXR only, and in later studies, CXR and purified protein derivative skin test (PPD) were both used. By contrast, in US and Canada, CXR and PPD were both used.

[3] = test system: patients with moderate to severe rheumatoid arthritis; experiment: Study C: medically relevant adverse events; assay type: in vivo, human
Procedure: The Canadian Adalimumab Clinical Trial (Study C) was an open-label, multi-center, Phase IIIb study conducted in Canada. […] Efficacy and safety were assessed at baseline, 4, 8, and 12 weeks. Efficacy assessments included tender joint count (TJC 0-28), swollen joint count (SJC 0-28), Disease Activity Score 28 (DAS28), Health Assessment Questionnaire (HAQ), and EULAR response. […] The sample size for each outcome variable is based on the data available at the time of the analysis. The data from this preliminary analysis were compared with the Week 12 data from Study A (N=2008).

[4] = test system: patients with long-standing RA; experiment: Study 4: tender and swollen joint counts; assay type: in vivo, human
Procedure: At the last visit, 24% of participants had 0 tender joints and 21% of participants had 0 swollen joints.
Efficacy outcomes were evaluated as observed data: DAS28; ACR 20/50/70; Tender Joint Count (TJC); Swollen Joint Count (SJC); and HAQ Disability Index. Baseline demographics and disease characteristics were similar in both Study 4 and Study 5 consistent with moderate to severe RA, as shown below in Table 64: […]

[5] = test system: patients with early vs. long-standing RA; experiment: Safety of adalimumab in global clinical trials, early vs long-standing RA (serious adverse event rates, demyelinating disease, lymphoma)
Text: Study J was a 2-year randomized controlled trial in patients with early RA (disease duration<3 years). Participants in these clinical trials and in other phase Mb studies, were routinely evaluated for safety. Reports of serious adverse events (SAE) were tabulated using MedDRA coding by events per 100-patient-years (E/100PY). SAE rates were compared with respect to disease duration between patients with early (<3 yrs) and long-standing RA.

[6] = open-label trials, N = 2504, 7951 PY
[7] = US/Canada and Europe RA trials through December 2004
[8] = All Trials adalimumab (4870 PY), data for registration
[9] = Combined (long-standing + early RA)
[10] = Early RA, Study J (N=542; 917 PY)
[11] = Early RA, Study J, N (Exposure) 542 (917)
[12] = Long-standing RA, 31-Aug.-2004 (N=10,050; 12,066 PY)
[13] = Long-standing RA, 31-Aug.-2004, N (Exposure) 10,050 (12,066)

With “adalimumab: human anti-TNF mAb (HUMIRA, Abbott Laboratories), described in U.S. Pat. No. 6,090,382 as D2E7” the serious infection rate ([1]; 146 patients with diabetes, 427 PY) was 0.049 /PY, the “patients who experienced a serious infection” value ([1]; 285 of 2504 patients) was 11% and the serious infection rate ([1]; 2504 patients, 7951 PY, to Mar. 1, 2005) was 0.045 /PY. For the same substance, the “rate of serious infections” value ([1]; all patients) was 4.5 events per 100 PY, the serious infection rate ([1]; blinded controlled phases of pivotal trials, 1380 patients) was 0.042 /PY and the Pneumonia ([1]; human, in vivo) was 64 events. The cellulitis ([1]; human, in vivo) was 29 events, the Septic arthritis ([1]; open-label trials) was 37 events and the “Patients with serious infections, %” value [1, 6] was 11.4%. For the same substance, the “Serious infection Cellulitis: number of events E” value [1, 6] was 29, the “Serious infection Cellulitis: rate (E/100PY)” value [1, 6] was 0.4 E/100PY and the “Serious infection Pneumonia: number of events E” value [1, 6] was 64. The “Serious infection Pneumonia: rate (E/100PY)” value [1, 6] was 0.8 E/100PY, the “Serious infection Septic Arthritis: number of events E” value [1, 6] was 37 and the “Serious infection Septic Arthritis: rate (E/100PY)” value [1, 6] was 0.5 E/100PY. The “rate of serious infections” value ([1]; with diabetes mellitus) was 4.9 events per 100 PY, the “rate of serious infections” value ([1]; without diabetes mellitus) was 4.5 events per 100 PY and the “TB cases: Culture positive” value [2, 7] was 62%. The “TB cases: Extrapulmonary” value [2, 7] was 65%, the “TB: Total Cases” value [2, 7] was 34 and the “TB cases: Median months from treatment to diagnosis (range)” value ([2]; US/Canada and Europe RA trials through December 2004, range 1-54) was 7.2 months (1-54). For the same substance, the “cases of TB” value ([2]; after screening) was 27 cases, the “rate of TB” value ([2]; after screening, 14,010 pt-yrs) was 0.0019 /pt-yr and the “rate of TB” value ([2]; after screening, Europe) was 0.0027. For the same substance, the “rate of TB” value ([2]; after screening, North America) was 0.0008, the “cases of TB” value ([2]; before screening) was 7 cases and the “rate of TB” value ([2]; before screening, 534 pt-yrs) was 0.013 /pt-yrs. The “reduction in the rate of developing TB with screening” value ([2]; human, in vivo) was 85%, the “TB cases: Outcome Resolved” value ([2]; of 34 cases, one patient died of unrelated causes) was 32** and the “median time to the development of TB” value ([2]; range 14-1636) was 167 days. The “Infections: Influenza, number” value ([3]; Study C (n=879)) was “Influenza (1)”, the “Infections: Pneumonia, number” value ([3]; Study C (n=879)) was “Pneumonia (3)” and the “Infections: Post-operative infections, number” value ([3]; Study C (n=879)) was “infections (3)”. The “Infections: Pyelonephritis, number” value ([3]; Study C (n=879)) was “Pyelonephritis (1)”, the “Infections: Sinusitis, number” value ([3]; Study C (n=879)) was “Sinusitis (1)” and the “Medically relevant adverse events: Congestive heart failure, %” value ([3]; Study C (n=879)) was 0.1%. For the same substance, the “Medically relevant adverse events: Congestive heart failure, number” value ([3]; Study C (n=879)) was 1, the “Infections: Atypical infection (nodules), number” value ([3]; in vivo) was “(nodules) (1)” and the “Infections: Infected prosthesis, number” value ([3]; in vivo) was “Infected prosthesis (1)”. For the same substance, the “Medically relevant adverse events: Infections, %” value ([3]; in vivo) was 1.3%, the “Medically relevant adverse events: Infections, number” value ([3]; in vivo) was 11 and the “Medically relevant adverse events: Malignancies, %” value ([3]; in vivo) was 0.2%. For the same substance, the “Medically relevant adverse events: Malignancies, number” value ([3]; in vivo) was 2, the “SJC (0-66), % change of mean clinical improvement from baseline” value (“SJC (0-66), % change” below) ([4]; 6 months) was 58% and the “TJC (0-68), % change of mean clinical improvement from baseline” value (from here on “TJC (0-68), % change”) ([4]; 6 months) was 64%. For the same substance, the “SJC (0-66), % change” value ([4]; 12 months) was 67%, the “TJC (0-68), % change” value ([4]; 12 months) was 69% and the “SJC (0-66), % change” value ([4]; 24 months) was 69%. The “TJC (0-68), % change” value ([4]; 24 months) was 72%, the “SJC (0-66), % change” value ([4]; 36 months) was 68% and the “TJC (0-68), % change” value ([4]; 36 months) was 75%. For the same substance, the “SJC (0-66), % change” value ([4]; 48 months) was 61%, the “TJC (0-68), % change” value ([4]; 48 months) was 78% and the “median number of swollen joints” value ([4]; end of four years) was 3. The “median number of tender joints” value ([4]; end of four years) was 2, the “participants with 0 swollen joints” value ([4]; last visit (n=846 analysis)) was 21% and the “participants with 0 tender joints” value ([4]; last visit (n=846 analysis)) was 24%. The Malignancies [5, 8] was 0.006 N/PY, the Pneumonia [5, 8] was 0.008 N/PY and the TB [5, 8] was 0.003 N/PY. The “Total lymphomas, Expected” value [5, 9] was 5.16 cases, the “Total lymphomas, Observed” value [5, 9] was 15 cases and the “Total lymphomas, SIR” value [5, 9] was 2.91. For the same substance, the “Total lymphomas, Expected” value ([5]; Early RA) was 0.37 cases, the “Total lymphomas, Observed” value ([5]; Early RA) was 0 cases and the “Total lymphomas, SIR” value ([5]; Early RA) was 0. The cases of lymphoma ([5]; Early RA) was “No cases”, the “Congestive Heart Failure rate” value [5, 10] was 0.11 E/100PY and the “Demyelinating Diseases rate” value [5, 10] was 0.00 E/100PY. For the same substance, the Lymphoma rate [5, 10] was 0.00 E/100PY, the Pancytopenia rate [5, 10] was 0.00 E/100PY and the “Pneumonia (serious) rate” value [5, 10] was 0.55 E/100PY. The “SLE/Lupus-like Syndrome rate” value [5, 10] was 0.00 E/100PY, the “Septic Arthritis rate” value [5, 10] was 0.22 E/100PY and the “Serious Infections rate” value [5, 10] was 1.85 E/100PY. The Tuberculosis rate [5, 10] was 0.11 E/100PY, the “Urinary Tract Infections (serious) rate” value [5, 10] was 0.11 E/100PY and the “Cases of Guillain-Barre syndrome” value [5, 11] was 0 cases. For the same substance, the “Cases of Multiple sclerosis” value [5, 11] was 0 cases, the “Cases of Non-specific demyelination” value [5, 11] was 0 cases and the “Hodgkin's, Expected” value ([5]; Long-standing RA) was 0.36 cases. The “Hodgkin's, Observed” value ([5]; Long-standing RA) was 1 cases, the “Hodgkin's, SIR” value ([5]; Long-standing RA) was 2.78 and the “NHL, Expected” value ([5]; Long-standing RA) was 4.32 cases. For the same substance, the “NHL, Observed” value ([5]; Long-standing RA) was 14 cases, the “NHL, SIR” value ([5]; Long-standing RA) was 3.24 and the “Total lymphomas, Expected” value ([5]; Long-standing RA) was 4.68 cases. The “Total lymphomas, Observed” value ([5]; Long-standing RA) was 15 cases, the “Total lymphomas, SIR” value ([5]; Long-standing RA) was 3.21 and the “Congestive Heart Failure rate” value [5, 12] was 0.26 E/100PY. For the same substance, the “Demyelinating Diseases rate” value [5, 12] was 0.07 E/100PY, the Lymphoma rate [5, 12] was 0.11 E/100PY and the Pancytopenia rate [5, 12] was 0.02 E/100PY. The “Pneumonia (serious) rate” value [5, 12] was 0.87 E/100PY, the “SLE/Lupus-like Syndrome rate” value [5, 12] was 0.06 E/100PY and the “Septic Arthritis rate” value [5, 12] was 0.46 E/100PY. The “Serious Infections rate” value [5, 12] was 4.79 E/100PY, the Tuberculosis rate [5, 12] was 0.24 E/100PY and the “Urinary Tract Infections (serious) rate” value [5, 12] was 0.38 E/100PY. The “Cases of Guillain-Barre syndrome” value [5, 13] was 2 cases, the “Cases of Multiple sclerosis” value [5, 13] was 4 cases and the “Cases of Non-specific demyelination” value [5, 13] was 2 cases. For the same substance, the “lymphoma combined SIR” value ([5]; all RA patients in adalimumab clinical trials, 95% CI 1.63-4.80) was 2.91, the “cases of demyelinating diseases” value ([5]; early RA (Study J)) was “No cases” and the “cases of demyelinating diseases” value ([5]; long-standing RA, through Aug. 31, 2004) was “Eight”. For the same substance, the cases of lymphoma ([5]; long-standing RA, through August 2004) was “Fifteen”.
